# Reference: patent US20220306747A1 (CHINA MEDICAL UNIVERSITY HOSPITAL, published 2022)
# Assays:
# [1] = biological target: HLA-G recombinant protein (CAT #: TP305216, Origene) (human) (UniProt P17693); assay: competitive ELISA, HLA-G coated, competitor biotinylated LILRB1
# [2] = biological target: HLA-G recombinant protein (CAT #: TP305216, Origene) (human) (UniProt P17693); assay: competitive ELISA, HLA-G coated, competitor biotinylated KIR2DL4
# [3] = biological target: T1, HLA-G recombinant protein (CAT #: TP305216, Origene) (human, UniProt P17693 25-338, limits assumed); assay: competitive ELISA, HLA-G coated, competitor biotinylated LILRB1; blocking normalized to 87G
# T1 construct: Bought recombinant protein coated on the plate; also called human leukocyte antigen-G
# Protocol: (§1) The procedure is as follows. HLA-G recombinant protein (CAT #: TP305216, Origene) (0.2 mg/ml, 100 μl each well) was coated on 96-well plate overnight at 4° C. Next day, the coating buffer was discarded, and blocked with 3% skin milk for 2 hr at room temperature, followed by washing 5 times with PBST (0.05% Tween in PBS). […] After 9 times of washing, each well was incubated with 100 μl PBST containing streptavidin-HRP conjugates (ThermoFisher, Cat No: N100, dilution titer: […]) for 2 hr at room temperature. After 9 times of washing with PBST, 50 μl of TMB substrate for detecting HRP activity (ThermoFisher, Cat No:N301) was added. The reactions were stopped by adding 50 μl stop solution (ThermoFisher, Cat No:N600), and it was measured by ELISA reader using 450 nm channel.
# [4] = biological target: T1, HLA-G recombinant protein (CAT #: …); assay: competitive ELISA, HLA-G coated, competitor biotinylated KIR2DL4; blocking normalized to 87G
# Protocol: as §1
IC50 [1] [µg/mL],IC50 [2] [µg/mL],IC50 [3] [µg/mL],IC50 [4] [µg/mL],Molecule
0.101,0.0414,,,commercial anti-HLA-G monoclonal antibody (87G)
,,0.000174,0.814,"anti-HLA-G nanobody clone #20 (VHH, also called anti-tumor antigen nanobody; anti-HLA-G nanobody (NB)) VHH: EVQLVESGGGSVRPGETLRLSCTASGFTVDDSDMSWYRQAPGDECELVSSITSGGGKYYSHPVKGRFTIFRDKGKNTMYLQMNSLVPEDTGVYYCVAPAWTGYGCTWGQGTQVTVSS"
,,0.000825,0.00614,"anti-HLA-G nanobody clone #9 (VHH, also called anti-tumor antigen nanobody; anti-HLA-G nanobody (NB)) VHH: QVQLVESGGGSVQAGGSLRLSCEASGRTYSSNCMGWFRQAPGKERENVAAIYTGGDGITYADSVKGRFTISQDKLKNMLYLQMDSLKPEDTAMYYCAADPNRRRMGVGGSCLRANFGPGGQGTQVTVSS"
